{
  "source": "paper PMC2115667",
  "about": "(The Journal of Cell Biology, 1988)",
  "proteins": {"B1": {"name": "cytotactin (intact, unreduced hexabrachion) (natural protein)", "chain": "ETGLNVTLPEDNQPVVFNHVYNIKLPVGSLCSVDLDTASGDADLKAEIEPVKNYEEHTVNEGNQIVFTHRINIPRRACGCAAAPDIKDLLSRLEELEGLVSSLREQCASGAGCCPNSQTAEGRLDTAPYCSGHGNYSTEICGCVCEPGWKGPNCSEPACPRNCLNRGLCVRGKCICEEGFTGEDCSQAACPSDCNDQGKCVDGVCVCFEGYTGPDCGEELCPHGCGIHGRCVGGRCVCHEGFTGEDCNEPLCPNNCHNRGRCVDNECVCDEGYTGEDCGELICPNDCFDRGRCINGTCFCEEGYTGEDCGELTCPNNCNGNGRCENGLCVCHEGFVGDDCSQKRCPKDCNNRGHCVDGRCVCHEGYLGEDCGELRCPNDCHNRGRCINGQCVCDEGFIGEDCGELRCPNDCHNRGRCVNGQCECHEGFIGEDCGELRCPNDCNSHGRCVNGQCVCDEGYTGEDCGELRCPNDCHNRGRCVEGRCVCDNGFMGEDCGELSCPNDCHQHGRCVDGRCVCHEGFTGEDCRERSCPNDCNNVGRCVEGRCVCEEGYMGIDCSDVSPPTELTVTNVTDKTVNLEWKHENLVNEYLVTYVPTSSGGLDLQFTVPGNQTSATIHELEPGVEYFIRVFAILKNKKSIPVSARVATYLPAPEGLKFKSVRETSVQVEWDPLSISFDGWELVFRNMQKKDDNGDITSSLKRPETSYMQPGLAPGQQYNVSLHIVKNNTRGPGLSRVITTKLDAPSQIEAKDVTDTTALITWSKPLAEIEGIELTYGPKDVPGDRTTIDLSEDENQYSIGNLRPHTEYEVTLISRRGDMESDPAKEVFVTDLDAPRNLKRVSQTDNSITLEWKNSHANIDNYRIKFAPISGGDHTELTVPKGNQATTRATLTGLRPGTEYGIGVTAVRQDRESAPATINAGTDLDNPKDLEVSDPTETTLSLRWRRPVAKFDRYRLTYVSPSGKKNEMEIPVDSTSFILRGLDAGTEYTISLVAEKGRHKSKPTTIKGSTEEEPELGNLSVSETGWDGFQLTWTAADGAYENFVIQVQQSDNPEETWNITVPGGQHSVNVTGLKANTPYNVTLYGVIRGYRTKPLYVETTTGAHPEVGELTVSDITPESFNLSWTTTNGDFDAFTIEIIDSNRLLEPMEFNISGNSRTAHISGLSPSTDFIVYLYGISHGFRTQAISAAATTEAEPEVDNLLVSDATPDGFRLSWTADDGVFDSFVLKIRDTKRKSDPLELIVPGHERTHDITGLKEGTEYEIELYGVSSGRRSQPINSVATTVVGSPKGISFSDITENSATVSWTPPRSRVDSYRVSYVPITGGTPNVVTVDGSKTRTKLVKLVPGVDYNVNIISVKGFEESEPISGILKTALDSPSGLVVMNITDSEALATWQPAIAAVDNYIVSYSSEDEPEVTQMVSGNTVEYDLNGLRPATEYTLRVHAVKDAQKSETLSTQFTTGLDAPKDLSATEVQSETAVITWRPPRAPVTDYLLTYESIDGRVKEVILDPETTSYTLTELSPSTQYTVKLQALSRSMRSKMIQTVFTTTGLLYPYPKDCSQALLNGEVTSGLYTIYLNGDRTQPLQVFCDMAEDGGGWIVFLRRQNGKEDFYRNWKNYVAGFGDPKDEFWIGLENLHKISSQGQYELRVDLRDRGETAYAVYDKFSVGDAKTRYRLRVDGYSGTAGDSMTYHNGRSFSTFDKDNDSAITNCALSYKGAFWYKNCHRVNLMGRYGDNNHSQGVNWFHWKGHEYSIQFAEMKLRPSSFRNLEGRRKRA", "modifications": "interchain disulfide bonds; HNK-1 carbohydrate epitope; radioiodinated (chloramine T, 125I) in the ultracentrifugation"}},
  "molecular_target": "the molecule itself",
  "test": "sedimentation velocity centrifugation on glycerol gradients",
  "data": [
    {"protein": "B1", "values": [
      {"measurement": "stoichiometry N", "value": "~6"}
    ]}
  ]
}
